The target of assay [1] is M4N-His (M4N with the stop helix extended by a C-terminal His6-tag). Description: SEC-MALS; static light scattering: Superdex S200 gel size exclusion column coupled to a miniDAWN Tristar laser photometer and a differential refractometer; buffer A (50 mM Tris pH 8, 150 mM NaCl).
Assay [2] addresses M4NΔC (M4N without stop helix). The description is as above.

For orientation: stoichiometry N means a count of units in the complex or per binding partner. “M4N-His (M4N with the stop helix extended by a C-terminal His6-tag)”: the stoichiometry N in assay [1] worked out at 2. As to M4NΔC (M4N without stop helix), in assay [2], the stoichiometry N was determined as 2.

The values are drawn from publication PMC5074805.
